Measured values reported in paper PMC8458794 (Protein & Cell, 2021).

What was measured:
[1] = biological target: T1, Avi-tagged SARS-CoV-2 RBD, biotinylated (Severe acute respiratory syndrome …, UniProt P0DTC2, biotin (BirA biotinylation of the Avi tag)); experiment: BLI; conditions: both partners purified
T1 construct: also called biotinylated RBD protein of SARS-CoV-2

[2] = biological target: recombinant S-ECD of SARS-CoV (Severe acute respiratory syndrome …, UniProt P59594); experiment: cell-based or functional assay
[3] = biological target: recombinant SARS-CoV-2 RBD protein (wild type) (SARS-CoV-2, UniProt P0DTC2); experiment: ELISA; conditions: both partners purified

B1: XG014 monoclonal antibody (IgG) (antibody, V domains shown)
VH: EVQLVQSGAEVKKPGESLKISCKGSGYSFSNYWIGWVRHMPGKGLEWMGIIYPGDSDTRYSPSFQGQVTISVDTSISTAYLQWSSLKASDTAMYYCTRHQYGYNYGYFYYYIDVWGKGTTVTVSS
VL: QSVLTQPPSVSAAPGQKVTISCSGSSSNIGNNPVSWYRQVPGTAPKLLIYDNNKRPSGIPDRFSGSKSGASATLGITGLQTGDEADYYCGTWHTSLSSGVFGGGTKLTVL
**Q.** For B1, which Kd [1] is on record?
**A.** The Kd was less than 1 pM.

**Q.** And the “IC50 of neutralisation of SARS-CoV pseudovirus in Huh-7 cells” value [2]?
**A.** Its value is 0.016 µg/mL.

B2: XG005 monoclonal antibody (IgG) (antibody, V domains shown)
VH: QVTLRESGPTLVKPKQTLTLTCTFSGFSLSTPGGGVGWIRQPPGKALEWLALIYWDDDKRYSPSLKSSLTITKDTSKNQVVLTMTNMDPVDTATYYCARLTAADTIFDCWGQGTLVTVSS
VL: QSALTQPASVSGSPGLSITISCTATSSDVGAYNYVSWYQQHPGQAPKLMIYDVSKRPSGVSNRFSGSKSANTASLTISGLQAEDEADYYCSSYTTTSVVFGGGTKLTVL
**Q.** Does B2 bind [3]?
**A.** Result: binds
